What is called Kd is a measure of binding affinity in units of concentration. A high value points to lower affinity. As a reminder, the stoichiometry N is the number of molecules, sites or subunits per partner or assembly.

These results are taken from paper PMC7324491, “Non-native proteins inhibit the ER oxidoreductin 1 (Ero1)–protein disulfide-isomerase relay when protein folding capacity is exceeded” (The Journal of Biological Chemistry, 2020).

One assay addresses T1, Ero1α–PDI (Homo sapiens, UniProt P07237).
T1 construct: gene P4HB; with ERO1-like protein alpha
Kind of assay: oxygen consumption assay. Format: biochemical. Particulars: pH 7.0, 50 μM inhibitor pre- or postactivation, 10 μM PDI, 10 mM GSH; control compound.

The target in assay [1] is T2, His-tagged mature protein disulfide-isomerase (PDI) (human, UniProt P07237 18-508).
T2 construct: protein disulfide-isomerase (PDI), human, mature protein, domains a, b, b', a'; calculated mass of the construct 56379 Da; Treated with 1 mM DTT before ITC and in the BLI assays with the β-hairpin
Kind of assay: BLI; biotin-labeled β-hairpin of Ero1α immobilised on SA biosensors; PDI at 0, 0.5, 1.0, 2.0, 4.0 μM; 30 °C; 20 mM sodium phosphate, pH 7.0, 300 mM NaCl, 1 mM DTT; 1:1 model. Particulars: both partners purified.

Assay [2] addresses T2, His-tagged mature protein …. The assay is described as follows: BLI; KFWWFS immobilised on AR2G biosensors; PDI at 0, 0.5, 1.0, 2.0 μM; 30 °C; 20 mM sodium phosphate, pH 7.0, 300 mM NaCl; 1:1 model, association and dissociation fitted separately. Particulars: both partners purified.
For assay [3] the target is unchanged. The assay is described as follows: ITC; 600 μM KFWWFS injected into 27 μM PDI; 25 °C; 20 mM sodium phosphate, pH 7.0, 0.15 M NaCl; both treated with 1 mM DTT for 5 min before the measurement. Particulars: both partners purified.

Ends that are not written are not given here. * marks the point of attachment. Biotin = O=C1N[C@H]2[C@H](CS[C@H]2CCCCC(=O)*)N1

T2 sequence (P07237 18-508): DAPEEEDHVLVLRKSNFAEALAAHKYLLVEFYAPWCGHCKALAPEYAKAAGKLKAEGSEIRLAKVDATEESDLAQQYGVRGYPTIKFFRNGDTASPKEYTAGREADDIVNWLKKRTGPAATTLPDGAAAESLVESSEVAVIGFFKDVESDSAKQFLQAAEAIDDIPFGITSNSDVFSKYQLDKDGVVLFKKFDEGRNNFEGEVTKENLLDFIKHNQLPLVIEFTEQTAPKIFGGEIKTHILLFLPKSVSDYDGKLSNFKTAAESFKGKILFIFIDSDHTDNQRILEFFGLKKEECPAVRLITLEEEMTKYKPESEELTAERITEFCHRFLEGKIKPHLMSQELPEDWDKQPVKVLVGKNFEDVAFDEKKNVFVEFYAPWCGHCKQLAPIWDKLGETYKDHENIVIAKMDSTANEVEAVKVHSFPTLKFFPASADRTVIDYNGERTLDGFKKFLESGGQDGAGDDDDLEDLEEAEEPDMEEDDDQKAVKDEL
T1 sequence (P07237 18-508): as above
T1 sequence (Q96HE7 24-468 partner): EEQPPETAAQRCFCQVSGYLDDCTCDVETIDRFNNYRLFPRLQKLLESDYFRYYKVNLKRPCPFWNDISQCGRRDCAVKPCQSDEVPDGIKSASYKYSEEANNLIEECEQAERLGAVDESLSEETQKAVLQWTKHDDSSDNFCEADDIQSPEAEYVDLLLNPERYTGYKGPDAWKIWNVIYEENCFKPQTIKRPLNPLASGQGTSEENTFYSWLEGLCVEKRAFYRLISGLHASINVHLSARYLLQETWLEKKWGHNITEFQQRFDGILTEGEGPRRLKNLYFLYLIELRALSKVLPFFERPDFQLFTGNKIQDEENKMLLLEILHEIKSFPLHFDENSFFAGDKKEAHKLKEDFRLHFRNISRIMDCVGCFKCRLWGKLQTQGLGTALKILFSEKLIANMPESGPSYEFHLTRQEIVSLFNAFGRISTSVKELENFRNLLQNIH

For the molecule `C[C@]12CC[C@@H]3c4ccc(O)cc4CC[C@H]3[C@@H]1CC[C@H]2O` [17α-estradiol], the “inhibition at 50 μM” value against Ero1α–PDI is “it inhibited both activation and catalytic turnover, but only marginally”.

B1: β-hairpin of Ero1α (RYLLQETWLEKKWGH) with an N-terminal biotin label (peptide)
peptide: Biotin-RYLLQETWLEKKWGH
notes: protruding β-hairpin of human ER oxidoreductin 1 alpha (Ero1α), with a tryptophan at the tip (Trp272); also called β-hairpin loop of Ero1α; source: synthetic peptide, synthesized by GenScript
As for B1, the affinity in assay [1], expressed as Kd, was 4 µM.

B2: peptide KFWWFS (peptide)
peptide: KFWWFS
notes: model peptide without cysteine that mimics the exposed hydrophobic core of protein substrates; Immobilised on AR2G biosensors for BLI; also called model peptide; source: lyophilized peptide dissolved in 10 mM HCl
Regarding B2, in assay [2], the affinity, expressed as Kd, was 12.7 µM. In addition, in assay [3], the Kd is 6.8 µM and the “stoichiometry N” value was determined as 0.97.
